Test results: patent publication US20090291081A1 (AbbVie / Abbott, published 2009)
Where a chain is given by its changes, count along the chain named. One block for each binder: values may come before it.

Assays:
human IL-1α [1] = target: T1, human IL-1α (human, UniProt P01583 113-271); assay: Table 62 IC50; RBA presumed
T1 construct: also called IL-1alpha; hIL-1α
T1 sequence (looked up): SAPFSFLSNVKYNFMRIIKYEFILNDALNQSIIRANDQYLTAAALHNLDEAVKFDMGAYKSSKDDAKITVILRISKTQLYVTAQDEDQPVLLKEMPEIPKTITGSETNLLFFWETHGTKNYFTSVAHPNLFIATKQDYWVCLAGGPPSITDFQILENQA

human IL-1α [2] = target: T1, human IL-1α; assay: cell-based or functional assay

- IC50 (human IL-1α [1]): 200 nM
- ND50 (human IL-1α [2]): 500 nM
B1: ABT1-6-15 (other)
VH: EVQLLESGGGLVQPGGSLRLSCAASGFTFVRYDMAWVRQAPGKGLEWVSSINKSGALTSYADSVKGRFTISRDNSKNTLYLQMNSLRAEDTAVYYCAKGWASFDYWGQGTLVTVSS
notes: VH dAb

- IC50 (human IL-1α [1]): 80 nM
- ND50 (human IL-1α [2]): 60 nM
B2: ABT1-6-3 (other)
VH: B1 VH with V30G, R31A, A35Q, N52Y
notes: VH dAb

- IC50 (human IL-1α [1]): 3000 nM
- ND50 (human IL-1α [2]): 3000 nM
B3: ABT1-6 (other)
VH: B1 VH with V30G, R31A, A35Q
notes: VH dAb

- IC50 (human IL-1α [1]): 3 nM
- ND50 (human IL-1α [2]): 5 nM
B4: ABT1-141-43 (other)
VL: DIQMTQSPSSLSASVGDRVTITCRASQWIQKQLAWYQQKPGKAPKLLIYSSSYLQSGVPPRFSGSGSGTDFTLTISSLQPEDFATYYCQQHLRVPMTFGQGTKVEIKR
notes: VK dAb

- IC50 (human IL-1α [1]): > 10000 nM
- ND50 (human IL-1α [2]): 5000 nM
B5: ABT1-93 (other)
VH: EVQLLESGGGLVQPGGSLRLSCAASGFTFNEYNMVWVRQAPGKGLEWVSSISGGGGFTYYADSVKGRFTISRDNSKNTLYLQMNSLRAEDTAVYYCAKPLRGFVCSQHCSFDYWGQGTLVTVSS
notes: VH dAb

- IC50 (human IL-1α [1]): 5 nM
- ND50 (human IL-1α [2]): 7 nM
B6: ABT1-122-18 (other)
VL: DIQMTQSPSSLSASVGDRVTITCRASQPIWTELNWYQQKPGKAPKLLVYGSSSLQSGVPSRFSGSGSGTDFTLTISSLQPEDFATYYCQQFAYFPATFGQGTKVEIKR
notes: VK dAb

- IC50 (human IL-1α [1]): 80 nM
- ND50 (human IL-1α [2]): 100 nM
B7: ABT1-122-21 (other)
VL: B6 VL with V48I, S60T
notes: VK dAb

- IC50 (human IL-1α [1]): 10 nM
- ND50 (human IL-1α [2]): 18 nM
B8: ABT1-122-511 (other)
VL: B6 VL with V48I, S56R, Q89K
notes: VK dAb

- IC50 (human IL-1α [1]): 0.5 nM
- ND50 (human IL-1α [2]): 0.61 nM
B9: ABT1-95-21 (other)
VL: DIQMTQSPSSLSASVGDRVTITCRASQPIVRNLRWYQQKPGKAPKLLIYSSSYLEPGVPSRFSGSGSGTDFTLTISSLQPEDFATYYCQQGYRWPVTFGQGTKVEIKR
notes: VK dAb

- IC50 (human IL-1α [1]): 0.2 nM
- ND50 (human IL-1α [2]): 0.1 nM
B10: ABT1-95-139 (other)
VL: B9 VL with P28Q, Y87H
notes: VK dAb

- IC50 (human IL-1α [1]): > 0.5 nM
- ND50 (human IL-1α [2]): 1.2 nM
B11: ABT1-95-32 (other)
VL: B9 VL with R93S
notes: VK dAb

- IC50 (human IL-1α [1]): 0.1 nM
- ND50 (human IL-1α [2]): 0.238 nM
B12: ABT1-95-160 (other)
VL: B9 VL with Y87H, R93V
notes: VK dAb

- IC50 (human IL-1α [1]): 0.1 nM
- ND50 (human IL-1α [2]): 0.5 nM
B13: ABT1-95-107 (other)
VL: B9 VL with P56H, Y87H
notes: VK dAb

- IC50 (human IL-1α [1]): 0.3 nM
- ND50 (human IL-1α [2]): 0.008 nM
B14: ABT1-95-80 (other)
VL: B9 VL with S51V, Y87H
notes: VK dAb

- IC50 (human IL-1α [1]): 0.5 nM
- ND50 (human IL-1α [2]): 0.27 nM
B15: ABT1-95-24 (other)
VL: B9 VL with Q89C
notes: VK dAb

- IC50 (human IL-1α [1]): 0.5 nM
- ND50 (human IL-1α [2]): 1 nM
B16: ABT1-95-33 (other)
VL: B9 VL with Q89R
notes: VK dAb

- IC50 (human IL-1α [1]): 0.2 nM
- ND50 (human IL-1α [2]): 0.064 nM
B17: ABT1-95-149 (other)
VL: B9 VL with P28A, Y87H
notes: VK dAb

- IC50 (human IL-1α [1]): 0.1 nM
- ND50 (human IL-1α [2]): 2 nM
B18: ABT1-95-132 (other)
VL: B9 VL with K42I, L78P, Y87H
notes: VK dAb

- IC50 (human IL-1α [1]): 0.5 nM
- ND50 (human IL-1α [2]): 0.71 nM
B19: ABT1-95-26 (other)
VL: B9 VL with Q89G
notes: VK dAb

- IC50 (human IL-1α [1]): 0.1 nM
- ND50 (human IL-1α [2]): 0.139 nM
B20: ABT1-95-47 (other)
VL: B9 VL with Q27M, Y87H
notes: VK dAb

- IC50 (human IL-1α [1]): 0.5 nM
- ND50 (human IL-1α [2]): 1 nM
B21: ABT1-95-22 (other)
VL: B9 VL with R93H
notes: VK dAb

- IC50 (human IL-1α [1]): < 0.1 nM
- ND50 (human IL-1α [2]): 0.15 nM
B22: ABT1-95-44 (other)
VL: B9 VL with Q27S, Y87H
notes: VK dAb

- IC50 (human IL-1α [1]): < 0.1 nM
- ND50 (human IL-1α [2]): 0.5 nM
B23: ABT1-95-92 (other)
VL: B9 VL with Y53T, Y87H
notes: VK dAb

- IC50 (human IL-1α [1]): 0.5 nM
- ND50 (human IL-1α [2]): 0.5 nM
B24: ABT1-95-23 (other)
VL: B9 VL with I29T
notes: VK dAb

- IC50 (human IL-1α [1]): > 1 nM
- ND50 (human IL-1α [2]): > 10 nM
B25: ABT1-95-30 (other)
VL: B9 VL with G91S
notes: VK dAb

- IC50 (human IL-1α [1]): 3 nM
- ND50 (human IL-1α [2]): 0.438 nM
B26: ABT1-95-64 (other)
VL: B9 VL with I48V, Y49H, Y87H, I106V
notes: VK dAb

- IC50 (human IL-1α [1]): 0.1 nM
- ND50 (human IL-1α [2]): 0.085 nM
B27: ABT1-95-131 (other)
VL: B9 VL with I29T, Y87H
notes: VK dAb

- IC50 (human IL-1α [1]): > 0.5 nM
- ND50 (human IL-1α [2]): 3.3 nM
B28: ABT1-95-31 (other)
VL: B9 VL with R93L
notes: VK dAb

- IC50 (human IL-1α [1]): 0.1 nM
- ND50 (human IL-1α [2]): 0.044 nM
B29: ABT1-95-67 (other)
VL: B9 VL with S50A, Y87H
notes: VK dAb

- IC50 (human IL-1α [1]): 0.2 nM
- ND50 (human IL-1α [2]): 0.122 nM
B30: ABT1-95-118 (other)
VL: B9 VL with Y87H, Q89S
notes: VK dAb

- IC50 (human IL-1α [1]): 0.2 nM
- ND50 (human IL-1α [2]): 0.168 nM
B31: ABT1-95-116 (other)
VL: B9 VL with Y87H, Q89V
notes: VK dAb

- IC50 (human IL-1α [1]): 0.1 nM
- ND50 (human IL-1α [2]): 1 nM
B32: ABT1-95-34 (other)
VL: B9 VL with Q27A, Y87H
notes: VK dAb

- IC50 (human IL-1α [1]): 0.2 nM
- ND50 (human IL-1α [2]): 0.713 nM
B33: ABT1-95-85 (other)
VL: B9 VL with S26G, S51G, Y87H, Q89L
notes: VK dAb

- IC50 (human IL-1α [1]): > 1000 nM
- ND50 (human IL-1α [2]): 14 nM
B34: ABT1-164 (other)
VL: DIQMTQSPSSLSASVGDRVTITCRASRPIAGNLRWYQQKPGKAPKLLIWGASSLQSGVPSRFSGSGSGTDFTLTISSLQPEDFATYYCVQGWQWPITFGQGTKVEIKR
notes: VK dAb

- IC50 (human IL-1α [1]): > 0.5 nM
- ND50 (human IL-1α [2]): 2 nM
B35: ABT1-95-28 (other)
VL: B9 VL with R93G
notes: VK dAb

- IC50 (human IL-1α [1]): 0.1 nM
- ND50 (human IL-1α [2]): 0.184 nM
B36: ABT1-95-102 (other)
VL: B9 VL with E55Q, Y87H
notes: VK dAb

- IC50 (human IL-1α [1]): > 0.5 nM
- ND50 (human IL-1α [2]): 1 nM
B37: ABT1-95-29 (other)
VL: B9 VL with R93Q
notes: VK dAb

- IC50 (human IL-1α [1]): 0.2 nM
- ND50 (human IL-1α [2]): 0.1 nM
B38: ABT1-95-121 (other)
VL: B9 VL with Y87H, R93E
notes: VK dAb

- IC50 (human IL-1α [1]): 0.1 nM
- ND50 (human IL-1α [2]): 0.116 nM
B39: ABT1-95-122 (other)
VL: B9 VL with T72I, Y87H
notes: VK dAb

- IC50 (human IL-1α [1]): 0.5 nM
- ND50 (human IL-1α [2]): 0.43 nM
B40: ABT1-95-25 (other)
VL: B9 VL with Q89D
notes: VK dAb

- IC50 (human IL-1α [1]): 0.1 nM
- ND50 (human IL-1α [2]): 0.5 nM
B41: ABT1-95-161 (other)
VL: B9 VL with Y87H, V96P
notes: VK dAb

- IC50 (human IL-1α [1]): 0.2 nM
- ND50 (human IL-1α [2]): 0.19 nM
B42: ABT1-95-148 (other)
VL: B9 VL with P28T, Y87H
notes: VK dAb

- IC50 (human IL-1α [1]): < 0.1 nM
- ND50 (human IL-1α [2]): 0.15 nM
B43: ABT1-95-41 (other)
VL: B9 VL with Q27Y, Y87H
notes: VK dAb

- IC50 (human IL-1α [1]): 1000 nM
- ND50 (human IL-1α [2]): 105 nM
B44: ABT1-163 (other)
VL: DIQMTQSPSSLSASVGDRVTITCRASGNIVHNLRWYQQKPGKAPKLLIYAASRLQSGVPSRFSGSGSGTDFTLTISSLQPEDFATYYCAQGYEWPLTFGQGTKVEIKQ
notes: VK dAb

- IC50 (human IL-1α [1]): 0.5 nM
- ND50 (human IL-1α [2]): 1 nM
B45: ABT1-95-27 (other)
VL: B9 VL with G41R, Q89A
notes: VK dAb

- IC50 (human IL-1α [1]): 0.2 nM
- ND50 (human IL-1α [2]): 0.23 nM
B46: ABT1-95-115 (other)
VL: B9 VL with Y87H, Q89L
notes: VK dAb

- IC50 (human IL-1α [1]): 0.2 nM
- ND50 (human IL-1α [2]): 0.1 nM
B47: ABT1-95-117 (other)
VL: B9 VL with T85M, Y87H, Q89V
notes: VK dAb

- IC50 (human IL-1α [1]): > 10000 nM
- ND50 (human IL-1α [2]): > 10000 nM
B48: ABT1-92 (other)
VH: EVQLLESGGGLVQPGGSLRLSCAASGFTFSTYTMTWVRQAPGKGLEWVSTIFPGGSTTYYADSVKGRFTISRDNSKNTLYLQMNSLRAEDTAVYYCAKYVDFVKLSFDYWGQRTLVTVSS
notes: VH dAb
